{
  "source": "the Human Domainome abundance scans (Beltran et al. 2025)",
  "parents": {"B1": {"name": "PDZ and LIM domain protein 2, residues 284 to 339; numbered along this chain, Q96JY6 (parent)", "chain": "HTCEKCSTSIANQAVRIQEGRYRHPGCYTCADCGLNLKMRGHFWVGDELYCEKHAR"}},
  "note": "± gives the uncertainty stated by the source.",
  "data": [
    {"variants_of": "B1", "assay": "abundance fitness (aPCA) (normalised: wild type 0, dead -1); higher = more abundant; growth selection in yeast, the domain comes from the species named", "settings": "Homo sapiens", "values": [
      {"variant": "HTCEKCSTSIANQAVRIQEGRYRHPGCYTCADCGLNLKMQGHFWVGDELYCEKHAR", "note": "[R40Q]", "abundance fitness": "-0.091 ± 0.11"},
      {"variant": "HTCEKCSTSIANQAVRIQEGRYRHPGCYTCADCGLNLKMMGHFWVGDELYCEKHAR", "note": "[R40M]", "abundance fitness": "0.063 ± 0.059"},
      {"variant": "HTCEKCSTSIANQAVRIQEGRYRHPGCYTCADGGLNLKMRGHFWVGDELYCEKHAR", "note": "[C33G]", "abundance fitness": "-0.682 ± 0.061"},
      {"variant": "HTCEKCSTSIANQAVRIQEGRYRHPGCYTCADCGLNLKMRGHEWVGDELYCEKHAR", "note": "[F43E]", "abundance fitness": "-0.057 ± 0.1"},
      {"variant": "HTCEKCSTSIANQAVRIQEGRYRHPGCYTCADCGLNLKMRGHSWVGDELYCEKHAR", "note": "[F43S]", "abundance fitness": "-0.056 ± 0.084"},
      {"variant": "HTCEKCSTSIANQAVRIQEGRYRDPGCYTCADCGLNLKMRGHFWVGDELYCEKHAR", "note": "[H24D]", "abundance fitness": "-0.047 ± 0.08"},
      {"variant": "HTCEKCSTSIANQAVRIQEGRYRFPGCYTCADCGLNLKMRGHFWVGDELYCEKHAR", "note": "[H24F]", "abundance fitness": "-0.938 ± 0.19"},
      {"variant": "HTCEKCSTSIANQAVRIQEGRYRGPGCYTCADCGLNLKMRGHFWVGDELYCEKHAR", "note": "[H24G]", "abundance fitness": "-0.489 ± 0.089"},
      {"variant": "HTCEKCSTSIANQATRIQEGRYRHPGCYTCADCGLNLKMRGHFWVGDELYCEKHAR", "note": "[V15T]", "abundance fitness": "-0.018 ± 0.063"},
      {"variant": "HTCEKCSTSIANQAVRIQEGRWRHPGCYTCADCGLNLKMRGHFWVGDELYCEKHAR", "note": "[Y22W]", "abundance fitness": "-0.014 ± 0.11"},
      {"variant": "HTCEKCSTSIANQAVRIQEGRCRHPGCYTCADCGLNLKMRGHFWVGDELYCEKHAR", "note": "[Y22C]", "abundance fitness": "-0.348 ± 0.12"},
      {"variant": "HTCEKCSTSIANQAVRIQEGRMRHPGCYTCADCGLNLKMRGHFWVGDELYCEKHAR", "note": "[Y22M]", "abundance fitness": "-0.532 ± 0.13"},
      {"variant": "HTCEKCSTSIANQAVRIQEGRSRHPGCYTCADCGLNLKMRGHFWVGDELYCEKHAR", "note": "[Y22S]", "abundance fitness": "-0.292 ± 0.053"},
      {"variant": "HTCEKCSTSIANQAVRIQEGSYRHPGCYTCADCGLNLKMRGHFWVGDELYCEKHAR", "note": "[R21S]", "abundance fitness": "-0.02 ± 0.066"},
      {"variant": "HTCEKCSTSIANQAVRIQEGTYRHPGCYTCADCGLNLKMRGHFWVGDELYCEKHAR", "note": "[R21T]", "abundance fitness": "0.151 ± 0.12"},
      {"variant": "HTCEKCSTSIANQAVRIQEGRYRHPGCYTCADCGLNLHMRGHFWVGDELYCEKHAR", "note": "[K38H]", "abundance fitness": "-0.197 ± 0.16"},
      {"variant": "HTCEKCSTSIANQAVRIQYGRYRHPGCYTCADCGLNLKMRGHFWVGDELYCEKHAR", "note": "[E19Y]", "abundance fitness": "-0.549 ± 0.089"},
      {"variant": "HTCEKCSTSIANQAVRIQWGRYRHPGCYTCADCGLNLKMRGHFWVGDELYCEKHAR", "note": "[E19W]", "abundance fitness": "-0.624 ± 0.19"},
      {"variant": "HTCEKCSTSIANQAVRIQAGRYRHPGCYTCADCGLNLKMRGHFWVGDELYCEKHAR", "note": "[E19A]", "abundance fitness": "-0.165 ± 0.061"},
      {"variant": "HTCEKCSTSIANQAVRIQEGRYRHSGCYTCADCGLNLKMRGHFWVGDELYCEKHAR", "note": "[P25S]", "abundance fitness": "0.118 ± 0.068"},
      {"variant": "HTCEKCSTSIANQAVRIMEGRYRHPGCYTCADCGLNLKMRGHFWVGDELYCEKHAR", "note": "[Q18M]", "abundance fitness": "-0.253 ± 0.12"},
      {"variant": "HTCEKCSTSIANQAVRIREGRYRHPGCYTCADCGLNLKMRGHFWVGDELYCEKHAR", "note": "[Q18R]", "abundance fitness": "-0.062 ± 0.082"},
      {"variant": "HTCEKCSTSIANQAVRIHEGRYRHPGCYTCADCGLNLKMRGHFWVGDELYCEKHAR", "note": "[Q18H]", "abundance fitness": "-0.451 ± 0.2"},
      {"variant": "HTCEKCDTSIANQAVRIQEGRYRHPGCYTCADCGLNLKMRGHFWVGDELYCEKHAR", "note": "[S7D]", "abundance fitness": "-0.55 ± 0.11"},
      {"variant": "HTCEKCTTSIANQAVRIQEGRYRHPGCYTCADCGLNLKMRGHFWVGDELYCEKHAR", "note": "[S7T]", "abundance fitness": "0.008 ± 0.076"},
      {"variant": "HTCEKCLTSIANQAVRIQEGRYRHPGCYTCADCGLNLKMRGHFWVGDELYCEKHAR", "note": "[S7L]", "abundance fitness": "-0.09 ± 0.06"},
      {"variant": "HTCEKCRTSIANQAVRIQEGRYRHPGCYTCADCGLNLKMRGHFWVGDELYCEKHAR", "note": "[S7R]", "abundance fitness": "-0.216 ± 0.075"},
      {"variant": "HTCEKCITSIANQAVRIQEGRYRHPGCYTCADCGLNLKMRGHFWVGDELYCEKHAR", "note": "[S7I]", "abundance fitness": "-0.047 ± 0.14"},
      {"variant": "HTCEKCSTSIANQAVRIQEGRYRHPGCYTCADCGLLLKMRGHFWVGDELYCEKHAR", "note": "[N36L]", "abundance fitness": "-0.145 ± 0.069"},
      {"variant": "HTCEKCSTSIANQAVRIQEGRYRHPGCYTCADCGLDLKMRGHFWVGDELYCEKHAR", "note": "[N36D]", "abundance fitness": "-0.257 ± 0.16"},
      {"variant": "HTCEKCSTSIANQAVRIQEGRYRHPGCYTCADCGLGLKMRGHFWVGDELYCEKHAR", "note": "[N36G]", "abundance fitness": "-0.093 ± 0.067"},
      {"variant": "HTCEKCSTSIANQAVRIQECRYRHPGCYTCADCGLNLKMRGHFWVGDELYCEKHAR", "note": "[G20C]", "abundance fitness": "-0.339 ± 0.071"},
      {"variant": "HTCEKCSTSIANQAVRIQEERYRHPGCYTCADCGLNLKMRGHFWVGDELYCEKHAR", "note": "[G20E]", "abundance fitness": "-0.209 ± 0.15"},
      {"variant": "HTCEKCSTSIANQAVRIQEGRYRHPGCYTCADCGLNLKMRGHFWVGDELYCEDHAR", "note": "[K53D]", "abundance fitness": "0.078 ± 0.14"},
      {"variant": "HTCEKCSTSIANQAVRIQEGRYRHPGCYTCADCGLNLKMRGHFWVIDELYCEKHAR", "note": "[G46I]", "abundance fitness": "-0.223 ± 0.18"},
      {"variant": "HTCEKCSTSIANQAVRIQEGRYRHPGCYTCADCGLNLKMRGHFWVCDELYCEKHAR", "note": "[G46C]", "abundance fitness": "-0.202 ± 0.16"},
      {"variant": "HTCEKCSTSIANQAVRIQEGRYRHPGCYTCADCGLNLKMRGHFWVSDELYCEKHAR", "note": "[G46S]", "abundance fitness": "-0.066 ± 0.07"},
      {"variant": "HTCEKCSTSIANQAVWIQEGRYRHPGCYTCADCGLNLKMRGHFWVGDELYCEKHAR", "note": "[R16W]", "abundance fitness": "0.298 ± 0.12"},
      {"variant": "HTCEKCSTSIANQAVPIQEGRYRHPGCYTCADCGLNLKMRGHFWVGDELYCEKHAR", "note": "[R16P]", "abundance fitness": "0.209 ± 0.082"},
      {"variant": "HTCEKCSTSIANRAVRIQEGRYRHPGCYTCADCGLNLKMRGHFWVGDELYCEKHAR", "note": "[Q13R]", "abundance fitness": "-0.826 ± 0.1"},
      {"variant": "HTCEKCSTSIANAAVRIQEGRYRHPGCYTCADCGLNLKMRGHFWVGDELYCEKHAR", "note": "[Q13A]", "abundance fitness": "-0.399 ± 0.14"},
      {"variant": "HTCEKCSTSIANLAVRIQEGRYRHPGCYTCADCGLNLKMRGHFWVGDELYCEKHAR", "note": "[Q13L]", "abundance fitness": "-0.36 ± 0.099"},
      {"variant": "HTCEKCSTSIANKAVRIQEGRYRHPGCYTCADCGLNLKMRGHFWVGDELYCEKHAR", "note": "[Q13K]", "abundance fitness": "-0.501 ± 0.39"},
      {"variant": "HTCEKCSTSIANIAVRIQEGRYRHPGCYTCADCGLNLKMRGHFWVGDELYCEKHAR", "note": "[Q13I]", "abundance fitness": "-0.778 ± 0.2"},
      {"variant": "HTCEKCSWSIANQAVRIQEGRYRHPGCYTCADCGLNLKMRGHFWVGDELYCEKHAR", "note": "[T8W]", "abundance fitness": "-0.068 ± 0.069"},
      {"variant": "HTCCKCSTSIANQAVRIQEGRYRHPGCYTCADCGLNLKMRGHFWVGDELYCEKHAR", "note": "[E4C]", "abundance fitness": "0.033 ± 0.099"},
      {"variant": "HTCEKCSTSIANQAVRIQEGRYRHPGEYTCADCGLNLKMRGHFWVGDELYCEKHAR", "note": "[C27E]", "abundance fitness": "-0.105 ± 0.12"}
    ]}
  ]
}
